Target: Flag-TRAF3 (TNF receptor-associated factor 3, full length) (human (by the printed RefSeq NM_145725)) (UniProt Q13114)
Experiment: co-IP

Sequence of UniProt Q13114 (Q13114 whole entry): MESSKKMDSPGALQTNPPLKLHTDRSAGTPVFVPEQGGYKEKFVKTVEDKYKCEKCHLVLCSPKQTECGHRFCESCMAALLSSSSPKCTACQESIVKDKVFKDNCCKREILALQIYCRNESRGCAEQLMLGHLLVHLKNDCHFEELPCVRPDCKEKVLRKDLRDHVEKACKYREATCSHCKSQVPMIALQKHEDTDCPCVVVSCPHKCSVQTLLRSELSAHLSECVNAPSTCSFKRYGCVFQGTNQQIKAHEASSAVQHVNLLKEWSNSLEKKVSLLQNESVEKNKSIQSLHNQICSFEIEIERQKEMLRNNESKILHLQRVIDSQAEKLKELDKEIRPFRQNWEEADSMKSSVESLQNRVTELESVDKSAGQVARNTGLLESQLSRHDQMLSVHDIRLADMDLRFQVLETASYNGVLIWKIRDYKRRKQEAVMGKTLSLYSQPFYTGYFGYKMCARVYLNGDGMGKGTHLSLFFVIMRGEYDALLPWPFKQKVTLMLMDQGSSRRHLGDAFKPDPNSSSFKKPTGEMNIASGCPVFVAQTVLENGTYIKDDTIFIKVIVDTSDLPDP

Substance | fold decrease of the MAVS-TRAF3 co-precipitate [fold]
HA-NS1/126-225 (C-terminal effector domain fragment of H5N1/HM NS1) (domain or fragment) | 4.6
HA-NS1 (wild-type NS1 of H5N1/HM) (natural protein) | 8.5

— publication PMC5494602
